This is an account of results in article PMC5777896 (The FEBS journal, 2017).

Like-named read-outs stand apart in the source and are kept apart here.

The chains are these.
B1: human Hsc20 (natural protein, UniProt Q8IWL3 72-235, looked up)
chain: DYFSLMDCNRSFRVDTAKLQHRYQQLQRLVHPDFFSQRSQTEKDFSEKHSTLVNDAYKTLLAPLSRGLYLLKLHGIEIPERTDYEMDRQFLIEIMEINEKLAEAESEAAMKEIESIVKAKQKEFTDNVSSAFEQDDFEEAKEILTKMRYFSNIEEKIKLKKIPL
B2: full-length human Nfu (natural protein, UniProt Q9UMS0 10-254, looked up)
chain: GAAAVAAGLRRRFCHMLKNPYTIKKQPLHQFVQRPLFPLPAAFYHPVRYMFIQTQDTPNPNSLKFIPGKPVLETRTMDFPTPAAAFRSPLARQLFRIEGVKSVFFGPDFITVTKENEELDWNLLKPDIYATIMDFFASGLPLVTEETPSGEAGSEEDDEVVAMIKELLDTRIRPTVQEDGGDVIYKGFEDGIVQLKLQGSCTSCPSSIITLKNGIQNMLQFYIPEVEGVEQVMDDESDEKEANSP

The target of experiment [1] is human HSPA9 (human) (UniProt P38646).
Experiment [2] has the same target. Kind of experiment: ITC.
For experiment [3] the target is unchanged. In words: ITC. This is another data set of the same source. In general terms: In ITC the heat of successive injections is recorded.
The target is the same in experiment [4]. In words: ITC. This is another data set of the same source.
Experiment [5] has as its target human Hsc20 (human) (UniProt Q8IWL3). In words: ITC.
Experiment [6] shares this target. Kind of experiment: ITC. This is another data set of the same source.
In experiment [7] the target is human HSPA9 (human) (UniProt P38646). Kind of experiment: ITC. This is another data set of the same source.
A further experiment deals with IscU (Escherichia coli) (UniProt P0ACD4). Kind of experiment: SPR. To be noted: cited from earlier work.
The experiment “full-length human Nfu” concerns the target B2. Kind of experiment: ITC.
The target in experiment [8] is T1, human HSPA9 (human, UniProt P38646 47-679). In words: cell-based or functional assay.
Experiment [9] concerns the target T1, human HSPA9. Kind of experiment: ITC.
Experiment [10] addresses T2, human HSPA9/Hsc20 complex (human, UniProt P38646 47-679; Q8IWL3 72-235). Kind of experiment: ITC.
In experiment [11] the target is T2, human HSPA9/Hsc20 complex. Kind of experiment: ITC. This is another data set of the same source.
The target of the experiment “human Hsc20” is B1. Kind of experiment: ITC.
Experiment [12] concerns the target T1, human HSPA9. Kind of experiment: ITC. The source holds these as a separate data set.

T1 sequence (P38646 47-679): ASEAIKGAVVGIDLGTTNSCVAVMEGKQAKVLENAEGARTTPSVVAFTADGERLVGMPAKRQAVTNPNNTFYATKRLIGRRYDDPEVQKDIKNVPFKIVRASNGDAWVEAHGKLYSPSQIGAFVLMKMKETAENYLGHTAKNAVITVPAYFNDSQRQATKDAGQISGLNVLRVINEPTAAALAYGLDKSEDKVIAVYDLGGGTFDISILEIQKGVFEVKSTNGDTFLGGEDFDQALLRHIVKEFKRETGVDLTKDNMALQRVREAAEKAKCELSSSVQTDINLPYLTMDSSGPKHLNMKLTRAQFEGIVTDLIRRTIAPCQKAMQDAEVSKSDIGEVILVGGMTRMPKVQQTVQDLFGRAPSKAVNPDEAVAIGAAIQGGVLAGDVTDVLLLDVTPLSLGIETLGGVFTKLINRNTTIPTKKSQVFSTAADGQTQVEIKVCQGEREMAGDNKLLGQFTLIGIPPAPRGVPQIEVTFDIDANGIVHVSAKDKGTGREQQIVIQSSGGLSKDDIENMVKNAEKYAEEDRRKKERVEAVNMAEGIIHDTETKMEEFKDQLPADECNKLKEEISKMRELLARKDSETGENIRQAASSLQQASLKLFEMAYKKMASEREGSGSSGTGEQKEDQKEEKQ
T2 sequence (P38646 47-679, one chain of several): as the sequence (P38646 47-679) above
human HSPA9 (human), sequence (P38646 47-679): as above
IscU (Escherichia coli), sequence (P0ACD4 whole entry): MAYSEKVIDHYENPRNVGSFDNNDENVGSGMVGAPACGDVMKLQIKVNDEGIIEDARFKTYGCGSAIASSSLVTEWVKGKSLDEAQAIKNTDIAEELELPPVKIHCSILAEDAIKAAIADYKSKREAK

One may read the Kd as a measure of binding affinity in units of concentration. Usually stoichiometry N stands for a count of units in the complex or per binding partner. For the molecule “C-terminal domain of human Nfu (from UniProt Q9UMS0 10-254) (domain or fragment)”, the Vmax (maximum ratio of stimulation) of HSPA9 ATPase activity by C-Nfu, 0~150 µM in the experiment with human HSPA9 (human) [1] came to 2.44 fold. Besides, the equilibrium dissociation constant (Kd) in the experiment with human HSPA9 (human) [2] is 14.9 µM; with human HSPA9 (human) [3], 30.3 µM; in the experiment with human HSPA9 (human) [4] it was 51 µM; in the experiment with human Hsc20 (human) [5], 11 µM; with human Hsc20 (human) [6] it was 10 µM; with human HSPA9 (human) [7], 18 µM. Besides, the dH with human HSPA9 (human) [2] is -3.82 kcal/mol; with human HSPA9 (human) [3], -2 kcal/mol; in the experiment with human HSPA9 (human) [4], -3.2 kcal/mol; with human Hsc20 (human) [5] it was -1.7 kcal/mol; in the experiment with human Hsc20 (human) [6], -0.57 kcal/mol; in the experiment with human HSPA9 (human) [7], -7.3 kcal/mol. For the same molecule, the stoichiometry N came out at 0.88 in the experiment with human HSPA9 (human) [2], 0.907 with human HSPA9 (human) [3], 0.94 with human Hsc20 (human) [5] and 0.79 with human Hsc20 (human) [6].
HscA (from UniProt P0A6Z1): the Kd with IscU (Escherichia coli) was 39 µM.
As to B1, in the experiment with full-length human Nfu, the affinity, expressed as Kd, was 10 ± 1 µM.
For the molecule B2, in the experiment with human HSPA9 [8], the “Vmax (maximum ratio of stimulation) of HSPA9 ATPase activity by Nfu, 0~150 µM” value was determined as 3.78 fold. Also, the dissociation constant Kd in the experiment with human HSPA9 [9] was 36 ± 4 µM; in experiment [10] it was 9.43 ± 0.07 µM; in experiment [11] it was 0.3 ± 0.1 µM; with human HSPA9 [12] it was 8.3 ± 1.4 µM. The dH is -4.9 ± 0.1 kcal/mol with human HSPA9 [9], -1.7 ± 0.1 kcal/mol in experiment [10], -3.4 ± 0.1 kcal/mol in experiment [11] and -6.3 ± 0.7 kcal/mol with human HSPA9 [12]. Also, the “stoichiometry N” value with human HSPA9 [9] turned out to be 0.9 ± 0.2; in [10] it was 0.985 ± 0.04; in experiment [11], 0.95 ± 0.02; with human Hsc20, 0.93 ± 0.06; in the experiment with human HSPA9 [12] it was 0.9 ± 0.1.
